Measured values taken from patent US20040072285A1 (OREGON HEALTH AND SCIENCE UNIVERSITY, published 2004).

B1: IGFBP-3 fragment comprising amino acids 88-148 (peptide, UniProt P17936 115-175, looked up)
chain: VNASAVSRLRAYLLPAPPAPGNASESEEDRSAGSVESPSVSSTHRVSDPKFHPLHSKIIII
notes: range 88-148; also called IGFBP-3 fragment 88-148
B2: P4.33 protein (IGFBP-3 receptor, IGFBP-3R), untagged / endogenous (receptor)
chain: SFLLTHRTGLRSPDIPQDWVSFLRSFGQLTLCPRNGTVTGKWRGSHVVGLLTTLNFGDGPDRNKTRTFQATVLGSQMGLKGSSAGQLVLITARVTTERTAGTCLYFSAVPGILPSSQPPISCSEEGAGNATLSPRMGEECVSVWSHEGLVLTKLLTSEELALCGSRLLVLGSFLLLFCGLLCCVTAMCFHPRRESHWSRTRL
B3: IGFBP-3 fragment comprising amino acids 98-264 (other, UniProt P17936 125-291, looked up)
chain: AYLLPAPPAPGNASESEEDRSAGSVESPSVSSTHRVSDPKFHPLHSKIIIIKKGHAKDSQRYKVDYESQSTDTQNFSSESKRETEYGPCRREMEDTLNHLKFLNVLSPRGVHIPNCDKKGFYKKKQCRPSKGRKRGFCWCVDKYGQPLPGYTTKGKEDVHCYSMQSK
notes: range 98-264; also called IGFBP-3 fragment 98-264

Columns and labels:
[1] = molecular target: B2; assay: cell-surface competition assay; competitor of full-length IGFBP-3
[2] = molecular target: T1, Insulin-like Growth Factor Binding Protein-3 (IGFBP-3) (UniProt P17936 28-291, limits assumed, 125I label or OregonGreen label in some assays (sites not given)); assay: cell-surface binding with unlabelled IGFBP-3 as competitor, Hs578T cells transfected with un-tagged clone 4.33
T1 construct: mature; Also used for IGFBP-3 expressed by the cells themselves (Hs578T, PC-3, MCF-7:BP-3 lines) in the functional rows; also called unlabelled IGFBP-3
Procedure: Cell surface binding assay. Cells were seeded into 24-well plates and grown to 60-70% confluency, then transfected according to manufacturer instructions in serum-containing medium for 36 hours. Sf9 cells were seeded into 24-well plates and infected with virus harboring the 4-33^F cDNA for 48 hours. Cells were washed in cold PBS, then incubated for 3 hours at 12° C. in binding buffer (1× Hank's buffered salt solution, 1 mM CaCl₂, 1 mM MgCl₂, 0.5% BSA) containing [¹²⁵I]-IGFBP-3 (Diagnostic Systems Laboratories) at 50,000 cpm per well in triplicate, with or without unlabelled IGFBP-3 as indicated in the text below. The binding solution was then aspirated and the cells washed in cold binding buffer (without BSA), lysed in 0.25 N NaOH, and the radiolabelled IGFBP-3 present in each lysate was detected in a gamma counter.
Cells were then washed and exposed to [¹²⁵I]-labelled IGFBP-3 plus and minus increasing amounts of unlabelled IGFBP-3 as indicated for 3 hours at 12° C.

| Binder | binding result [1] | binding result [2] |
| --- | --- | --- |
| B1 | binds | – |
| B2 | – | binds |
| B3 | binds | – |
